# Measured values from article PMC3909728.
# System: eVP35 IID WT (Ebola virus (EBOV))
# Assay: filter binding
substance,measurement,value
dsRNA,binding signal (fraction bound),< 0.3
